B1: IL-25: human and mouse IL-25 recombinant protein (protein, UniProt Q9H293 33-177, looked up)
Interleukin-25: YSHWPSCCPSKGQDTSEELLRWSTVPVPPLEPARPNRHPESCRASEDGPLNSRAISPWRYELDRDLNRLPQDLYHARCLCPHCVSLQTGSHMDPRGNSELLYHNQTVFYRRPCHGEKGTHKGYCLERRLYRVSLACVCVRPRVMG
modifications: also mouse IL-25
notes: human and mouse IL-25 recombinant protein

Assays:
IL-25 = IL-25 expression in lung fibroblasts, 4T1 tumor resection model (IF staining, flow cytometry); assay type: in vivo, mice
Experimental: BALB/c mice were subcutaneously injected with 4T1-Luc2 cells (5×10^5/100 μl PBS/mouse) into the fourth mammary fat pad under isoflurane anesthesia. Tumor growth was monitored by measuring the tumor volume according to the formula: volume=length×(width)^2/2. After tumors were established (180-200 mm^3) on day 14, test mice were divided into different groups (8 mice/group) and subjected to different treatments. At 15 days post tumor cell implantation, primary 4T1 tumors in situ were surgically removed by a tumor resection process. For drug treatment, mice were administered with different agents, including vehicle-control (PBS), mouse IL-25 protein (10 μg/kg, ProSpec, Vineland, N.J.), Q2-3 (2, 20 or 100 μg/kg) or docetaxel (2 mg/kg; Sigma-Aldrich), by intravenous injection for 3 weeks (3 injections/week) post tumor resection. For in vivo neutralization of mouse IL-25 activity, mice were treated intraperitoneally with either 100 μg anti-mouse IL-25 (IL-17E) antibody (clone 35B; Biolegend) or isotype control rat IgG (100 μg; rat, IgG1κ; Biolegend) at days 0, 3, 6, 9, 12, 15, 18 post tumor resection. To detect metastasis of human MDA-MD-231-Luc2 tumor cells, nude mice were injected subcutaneously with 5×10^5 MDA-MD-231-Luc2 cells into the mammary fat pad under isoflurane anesthesia. After tumors were established (250-350 mm^3) on day 24, test mice were divided into different groups (8 mice/group) and subjected to different treatments. At 25 days post tumor cell implantation, primary MDA-MD-231-Luc2 tumors in situ were surgically removed by a tumor resection process. For drug treatment, mice were administered with PBS (vehicle-control), Q2-3 (100 μg/kg), docetaxel (5 mg/kg) or Q2-3 (100 μg/kg)+docetaxel (5 mg/kg), by intravenous injection for 3 weeks (3 injections/week) post tumor resection. To monitor the progression of mouse (4T1) or human (MDA-MD-231) metastatic tumors, test mice treated with different drugs/agents were compared for their tumor metastatic activity and survival rate aftern another 8 weeks. Bioluminescence signals from the 4T1-luc2 tumor cells in test mice were analyzed using a non-invasive IVIS imaging system (Calipers, Hopkinton, Mass.) after intraperitoneal injection of 150 mg/kg D-luciferin (NanoLight technology, Pinetop, Ariz.).
Lung tissue specimens obtained from each tumor-resected mouse were fixed with 4% formalin and embedded in paraffin. For histological comparison, 6 μm-thick tissue sections were made and stained with hematoxylin and eosin (H&E). For immunofluorescence staining, fixed tissue sections were initially immersed in boiling sodium citrate buffer (0.01 M sodium citrate buffer, pH 6.0) for 30 min Lung tissue sections were blocked with 5% nonfat milk, and incubated with anti-FSP-1 antibody (1:200 dilution; Millipore), FITC-conjugated anti-CD206 antibody (1:200 dilution; Biolegend) or PE-conjugated anti-IL-25 antibody (1:100; R&D) in 1% nonfat milk for 1 hour at room temperature. Sections were then washed with PBS containing 0.1% Tween 20. To detect primary antibodies, some sections were incubated with FITC-conjugated anti-mouse-IgG (1:200; Jackson Immunoresearch, West Grove, Pa.) for FSP-1. 4′,6-Diamidino-2-phenylindole dihydrochloride (1 μg/ml; Sigma-Aldrich) was used to stain the nuclei. Fluorescence microscopy evaluation of immunostained tissue sections was performed using a Zeiss Axiovert 200 M microscope (Carl Zeiss, Heidelberg, Germany) Images were captured with a digital camera (Orca ER, Hamamatsu) and processed using Axiovision 4.6.3 (Carl Zeiss).
For detection of myeloid derived suppressor cells (MDSCs), cells from mouse lung tissue in each group were collected and stained for 30 min at 4° C. with antibodies against specific cell markers, including FITC-conjugated anti-mouse CD11b (for cell surface), APC-Cy7 conjugated anti-mouse Ly-6C and PE conjugated anti-mouse Ly-6G, (both for intracellular staining). All three antibodies were obtained from Biolegend, (San Diego, Calif.). […]

4T1 cells = assay: MTT growth activity of 4T1 cells in fibroblast conditioned media; assay type: cell-based, mouse; conditions: MTT at 5 days; media applied every 24 hours; IL-25 protein 100 ng/ml
Experimental: (§1) M10, WI38, SKBR3, and MDA-MB-231 cells (1×10^5 cells/ml) dispensed in 96-well plates were incubated with vehicle or test compounds (Q2-3) for 24 h or 72 h in corresponding basal medium in a 5% CO2 incubator. To evaluate the effect of secreted IL-25 from Q2-3-treated fibroblasts on growth activity of mammary tumor cells, 4T1 and MDA-MB-231 cells (1×10^4 cells/ml) dispensed in 96-well plates were incubated with control medium or different fibroblast conditioned media (200 μl/ml) which was changed daily for 5 days. All treatments were performed in triplicate cell cultures. The growth activity of cells was assayed using a 3-(4, 5-dimethythiazol-2-yl)-2, 5-diphenyl tetrazolium bromide (MTT; Sigma-Aldrich) colorimetric method. The absorbance at 570 nm (A570) was measured using a multiwall scanning spectrophotometer.
(§2) To pull down and deplete IL-25 protein molecules in 3T3 or MDA-MB-231 cell conditioned media, the Dynabeads antibody coupling kit (Life Technology; 14311D) was used according to the manufacturer's recommendations, yielding 10 mg/ml anti-IL25 antibody (ProteinTech, Chicago, Ill.)-coupled beads. The rabbit IgG (ProteinTech, Chicago, Ill.) was used as an isotype control antibody. […] The antibody-pulled down proteins from 3T3-CM, NHDF-CM or WI38-CM, were detected for the content of secreted IL-25 protein in each conditioned medium using western blot analysis. […]

MDA-MB-231 cells = assay: MTT growth activity of MDA-MB-231 cells in fibroblast conditioned media; assay type: cell-based, human; conditions: MTT at 5 days; media applied every 24 hours; IL-25 protein 100 ng/ml
Experimental: as §1, §2

caspases 8 and 3 = assay: Western blot of cleavage of caspases 8 and 3 in MDA-MB-231 cells; assay type: cell-based, human
Experimental: MDA-MB231 and MCF-7 cells were seeded in 6-well plate at 10^5 cells/well for 24 h before transfection. siRNAs used for knockdown of human IL-25 receptor (IL25-RB) were purchased from Biotools (Taiwan, ROC) as follows: IL-17RB-homo-448 (IL-25R-1 siRNA); IL-17RB-homo-519 ([…]); IL-17RB-homo-956 ([…]); negative control (Neg). At the beginning of transfection, each test IL25R siRNA oligomers (100 pmol) was diluted in 250 μl Opti-MEM I Reduced Serum Medium. Aliquots of 5 μl Lipofectamine 2000 transfection reagent (Invitrogen) were diluted with 250 μl Opti-MEM I Reduced Serum Medium. Diluted oligomers were mixed gently with the diluted Lipofectamine 2000 and incubated for 20 min at room temperature. The oligomer-Lipofectamine 2000 complexes were subsequently added to each well containing cells and medium. Cells were incubated at 37° C. for 72 h until test cells were ready to be treated with IL25 cytokine or a different CM.
Cell lysates of 3T3, WI38, NHDF, MDA-MB-231, MCF-10A and MCF-7 or the IL-25-pulled down protein lysates from 3T3, WI38 or NHDF conditioned media were resolved by SDS PAGE using 8, 10 or 15% stepwise gels. […] Loading of equal amounts of protein was assessed using the mouse β-actin protein as a reference. […] Quantification of protein in luminescent bands was performed using ImageJ software. […]

Molecule | total FSP-1+ER-TR7+ fibroblast population in lung (IL-25; 3 weeks post tumor resection, PBS control 5.2%) | cell population of IL-25+ fibroblasts (FSP-1+ER-TR7+IL-25+ cells) in lung (IL-25; 3 weeks post tumor resection, PBS control 16.7%) | IL-25 expression in lung fibroblasts (IF staining) (IL-25; Q2-3 100 μg/kg, 21 days post tumor resection) | growth activity of 4T1 cells (4T1 cells) | growth activity of MDA-MB-231 cells (MDA-MB-231 cells) | cleavage of caspases 8 and 3 (caspases 8 and 3; MDA-MB-231, IL-25 100 ng/ml, 24 h) | cleavage of caspases 8 and 3 in cells treated with IL-25R siRNA (caspases 8 and 3; MDA-MB-231 treated with IL-25R siRNA)
CC(=O)O[C@@]12CO[C@@H]1C[C@H](O)[C@@]1(C)C(=O)[C@H](O)C3=C(C)[C@@H](OC(=O)[C@H](O)[C@@H](NC(=O)OC(C)(C)C)c4ccccc4)C[C@@](O)([C@@H](OC(=O)c4ccccc4)[C@H]21)C3(C)C [DT, docetaxel, reference compound] | did not increase | did not increase | little or no IL-25 expression | – | – | – | –
B1 | – | – | – | decreased the growth activity | decreased the growth activity | resulted in the cleavage of caspases 8 and 3 | not able to induce

— patent publication US11207289B2, “Use of benzofuran lignans to induce IL-25 expression and suppress mammary tumor metastasis” (ACADEMIA SINICA, priority 2016, dated 2021)
